Assay results reported in patent publication US20240261403A1 (published 2024).
Values belong to the binder of their own block, whether it stands above or below them.

Target: T1, EGFR L858R peptide on HLA-A*33:03 (human)
T1 peptide: HVKITDFGR
Experiment: multimer staining

binding result: recognises
B1: TCR (ii) with CDR3 alpha SEQ ID NO: 2 and CDR3 beta SEQ ID NO: 14 (Table 2, rank 2) (TCR, V domains shown)
Valpha: KQEVTQIPAALSVPEGENLVLNCSFTDSAIYNLQWFRQDPGKGLTSLLLIQSSQREQTSGRLNASLDKSSGRSTLYIAASQPGDSATYLCAATGTYKYIFGRGTSLIVHP
Vbeta: NAGVTQTPKFQVLKTGQSMTLQCAQDMNHEYMSWYRQDPGMGLRLIHYSVGAGITDQGEVPNGYNVSRSTTEDFPLRLLSAAPSQTSVYFCASSPEFARALDNQPQHFGPGTRLTVL

binding result: recognises
B2: TCR (i) with CDR3 alpha SEQ ID NO: 1 and CDR3 beta SEQ ID NO: 13 (Table 2, rank 1) (TCR, V domains shown)
Valpha: KQEVTQIPAALSVPEGENLVLNCSFTDSAIYNLQWFRQDPGKGLTSLLLIQSSQREQTSGRLNASLDKSSGRSTLYIAASQPGDSATYLCAFIGHGGSQGNLIFGRGTSLIVHP
Vbeta: NAGVTQTPKFQVLKTGQSMTLQCAQDMNHEYMSWYRQDPGMGLRLIHYSVGAGITDQGEVPNGYNVSRSTTEDFPLRLLSAAPSQTSVYFCASSMQGAMSEQFFGPGTRLTVL
